Results on one molecule are retold here after patent publication US20140223606, “COMPOSITIONS AND METHODS COMPRISING SEQUENCES HAVING MEGANUCLEASE ACTIVITY” (PIONEER HI BRED INTERNATIONAL INC, published 2014).

Residue numbers refer to the chain shown, from its start.

Test in all cases: cell_activity; yeast 30 C; 22 C: 0
What all share (conditions): tags: NLS, 6xHis

Data set [1] has as its target T1, LIG3-4(A4) (artificial).
T1 chain: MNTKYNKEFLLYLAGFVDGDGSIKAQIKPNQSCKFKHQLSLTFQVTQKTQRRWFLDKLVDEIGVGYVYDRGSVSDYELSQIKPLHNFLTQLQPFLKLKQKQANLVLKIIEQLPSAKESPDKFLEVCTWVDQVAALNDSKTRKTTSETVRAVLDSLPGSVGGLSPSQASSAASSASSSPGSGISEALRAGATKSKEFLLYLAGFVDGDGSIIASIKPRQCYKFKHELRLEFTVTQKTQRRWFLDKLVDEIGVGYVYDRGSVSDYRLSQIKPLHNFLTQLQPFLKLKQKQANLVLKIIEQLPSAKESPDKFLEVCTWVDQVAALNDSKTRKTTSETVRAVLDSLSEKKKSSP
How it is done:
(§1) A 3 mL culture of selective media (MP Biomedical) was inoculated with a single colony of the yeast screening strain and grown at 30° C. overnight. On the following day, a 50 ml YPD culture (MP Biomedical) was started with 2 ml of the overnight culture and grown at 30° C. overnight. On the following day, the cells were harvested by centrifugation at 4000 rpm. The cells were resuspended in 100 ml ice cold water and centrifuged again. The cells were then washed in 1.2 M sorbitol, followed by treatment with 2 ml of 10 mM Tris pH 8.0, 1 mM EDTA, 100 mM Lithium acetate, 10 mM DTT, 0.6M sorbitol for 30 minutes at 30° C. with shaking. The cells were recovered by centrifugation, washed in 40 ml 1.2M sorbitol and finally resuspended in 250 microliters of 1.2M sorbitol. 50 microliter aliquots were transferred to test tubes on ice. Up to 5 microliters of DNA (100-500 nanograms) were added. The suspension was transferred to a 0.2 cm electroporation cuvette, on ice. Electroporation was performed with a pulse charge at 1.5 kV, 200 ohms, 25 microF (pulse time of 5 milliseconds). 1 mL YPD media (MP Biomedical) was added and the cells were allowed to recover at 30° C. for 1-2 hr. The cells were centrifuged, resuspended in 100 uL 1M sorbitol and plated on selective media lacking leucine and containing 2% galactose. The resulting yeast colonies were incubated at various temperatures ranging from 22 to 37 degrees Celsius for 7-10 days. I-CreI and meganucleases derived from it have maximal activity at or above 37 degrees Celsius. Screening was performed at a range of temperatures from 22 to 37 degrees in order to observe increases in activity at lower temperatures which are relevant to certain biological systems (eg. plant cells, plant cell cultures, etc). At that time the red/white sectoring phenotype, indicative of meganuclease activity was observed. Colonies with increased white sectoring over the parental meganuclease (indicating colonies expressing a meganuclease with increased meganuclease activity), also referred to as “hits” and sometimes completely white, were isolated for further analysis.

In data set [2] the target is T2, LIG3-4(B40) (artificial).
T2 chain: T1 chain with Q50K, V132I, G258K, V319I
How it is done:
as §1

Data set [3] concerns the target T3, LIG3-4(A6) (artificial).
T3 chain: T1 chain with F281Y, V319I
How it is done:
as §1

In data set [4] the target is T4, LIG3-4(B38) (artificial).
T4 chain: T1 chain with S22C, V132I, G258P, V319I
How it is done: as §1

Data set [5] concerns the target T5, LIG3-4(B55) (artificial).
T5 chain: T1 chain with S22C, V132I, S209C, G258K, V319I
Here is the method: as §1

B1: LIG3-4 recognition site (dsDNA)
DNA 1: ATATACCTCACACGTACGCGTA
DNA 2: TACGCGTACGTGTGAGGTATAT
As for B1, the activity is 3.5 score 0-4 in data set [1]; 4 score 0-4 in data set [2]; 3 score 0-4 in data set [3]; 4 score 0-4 in data set [4]; 4 score 0-4 in data set [5].
